Test results reported in PMC4620744 (Molecular cell, 2015).

Molecular target: full-length H2A-H2B (S. cerevisiae, UniProt P04911 1-132; P02293 1-131)
Experiment: ITC

Kd: 0.3 µM
stoichiometry N: 1
B1: Pob3-C (domain or fragment)
chain: EVQERLQTALGSDSDEEDINMGSAGEDDESVDEDFQVSSDNDADEVAEEFDSDAALSDAEGGSDEERPSKKPKVE
